Assay: yeast display, Sf9 membrane polyspecificity reagent, FACS + sequencing; frameworks hold sequencing errors
Procedure, shortened: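 Synthetic nanobody libraries on Saccharomyces cerevisiae BJ5465 were galactose-induced for 36–48 hours, stained 1 hour at 4 °C with 10% biotinylated, detergent-solubilized Sf9 membrane reagent and enriched on streptavidin microbeads. FACS then separated cells into low and high (top ~1%) gates by anti-HA (expression) and streptavidin (reagent binding) fluorescence. Genes were colony-PCR amplified, MiSeq 2 × 250 sequenced and CDR-length filtered. A clone's polyreactivity label is that of its gate of origin.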

QVQLVESGGGLVQAGGSLRLSCAASGRIFRHNTMGWYLQAPGKERELVAAIRYSGGRTYYADSVKGRFTLSRDTAKNTFYLQMNSLKPEDTAVYYCAATYFAAVYSSWYWFDYWGQGTQVTVSS
polyreactivity (PSR sort gate): high polyreactivity

QVQLVESGVGLVQAGGSLRLSCAASGFTFRRYAMGWYRQAPGKERELVAAISIRGGRTYYADSVKGRFTISRDNAKNTVYLQMNSLKPEDTAVYYCAADGVYALDVESDSWGQGTQVTVSS
polyreactivity (PSR sort gate): high polyreactivity

QVQLVESGGGLVQAGGSLRLSCAASGFIFFKNAMGWYRQAPGKERELVDVISTSGGRTYYADSVKGRFTISRDYAKNTVYLQMNSLKPEDTAVYYCAAGDQYKTRRNGYGYWGQGTQVTVSS
polyreactivity (PSR sort gate): high polyreactivity

QVQLVESGGGLVQAGGSLRLSCAASGRIFRWNAMGWYRQAPGKERELVAAISASGGRTYYADSVKGRFTISRDNAKNTVYLQMISLKPEDTAVYYCAAGPVYYYVPIGYDYWGQGTQVTVSS
polyreactivity (PSR sort gate): high polyreactivity

QVQLVESGGGLVQAGGSLRLSCAASGSTFDDNDMGWYRQAPGKERELVAAISWSGGSTTYADSVKGRFTISRDYAKNTVYLQMNSLKPEDTAVYYCAADWYYWGFIFDYWGQGTQVTVSS
polyreactivity (PSR sort gate): high polyreactivity

QVQLVESGGGLVQAGGSLRLSCAASGSIFVQYAMGWYRQAPGKERELVATISDDGSTNYADSVKGRFTISRDNAKNTVYLQMNSLKPEDTAVYYCAADTYYYVGADDYWGQGTQVTVSS
polyreactivity (PSR sort gate): low polyreactivity

QFQLVESGGGLVQAGGSLRLSCAASGRIFCSYAMGWYIQAPGKERELVAAITSGGSTNYADSVKARFTISRDNAKNTVYLLMNSLKQEDTAVYYCADVEYLRESDYWGQGTQVTVSS
polyreactivity (PSR sort gate): low polyreactivity

QVQLVESGGGLVQAGGSLRLSCAASGRTLYWYAMGWYRQAPGKERELVAAISSGGGSTYYADSVKGRFTISRDNAKNTVYLQMNSLKPEDTAVYYCATDEPWVYGYDYWGQGTQVTVSS
polyreactivity (PSR sort gate): low polyreactivity

QVQLVESGGGLVQAGGSLRLSCAASGRTFAFYGMGWYRQAPGKERELVATIRGTGGSTYYADSVKGRFTISRDNAKNTVYLQMNSLKPEDTAVYYCNKYLGIQVGSVPHDYWGQGSQVTVSS
polyreactivity (PSR sort gate): high polyreactivity

QVQLVESGGGLVQAGGSLRLSCAASGFIFWSNAMGWYRQAPGKERELVAAISWSGGSTYYADSVKGRFTISRDNAKNTVYLQMNSLKPEDTAVYYCNTLNVQRDEHDYWGQGTQVTVSS
polyreactivity (PSR sort gate): high polyreactivity

QVQLVESGGGLVQAGGSLRLSCAASGRTFYPNAMGWYRQAPGKERELVAAITWRSGSTYYADSVKGRFTISRDNAKNTVYLPMNSLKPEDTAVYYCNADSDYPYYPGKFDYWGQGTQVTVSS
polyreactivity (PSR sort gate): low polyreactivity

QVQLVESGGGLVQAGGSLRLSCAASGCIFAHNAMGWYRQAPGKERELVAASTYYADSVKGRFTISRDNAKNTVYLQMNSLKPEDTAVYYCAKRTRFSPGHDYWGQGTQVTVSS
polyreactivity (PSR sort gate): high polyreactivity

QVHLVESAGGLLQAAASLRLSGDASGSIISSYAMGWYRQAPGKERQLVAAITRSGGSTYYADSVKGRFTISRDYAKKTVYLQMNSLNPEDTAVYYCAARSYVHVFVRMYYWGQGTQVTVSS
polyreactivity (PSR sort gate): high polyreactivity

QVQLVESGGGLVQAGGSLRLSCAASGFTFPWYAMGWYSQAPGKERELVAAITSGGGSTYYADSVKGRFTISRDYAKNTVYLQMNSLKPEDTAVYYCAAVPALKWYGYEYWGQGTQVTVSS
polyreactivity (PSR sort gate): high polyreactivity

QVQLVESGGGLVQAGGSLRLSCAASGIIFYRNTMGWYRQAPGKEWELVAAIRRGGNTYYADSVKGRFTISRDNAKNTVYLQMNSLKPEDTAVYYCAASAGPRASYYYWGQGTQVTVSS
polyreactivity (PSR sort gate): high polyreactivity

QVPLVESGVGLVHAGGSLRISCATSGITFAYYFMGWYRQAPGKERELVAAISWTGSSTYYADSVKWRFTISRDNAKNTVYLQMNSLKQEDTAVYYCAARQRYLYDYWGQGTQVNVSS
polyreactivity (PSR sort gate): high polyreactivity

QVQLVESGGGLVQEGGSLRLSCAPSGRTFAKYAMGWYRQSPGKERELVAAITRGDTTNYADSVKGRFTISRDNAKNTVYLQMNSLKPEDTAVYYCAATPDPPHTYEYWGQGTQVTVSS
polyreactivity (PSR sort gate): low polyreactivity

QVQLVESGGGLVQAGGSLRLSCAASGRIFYINAMGWSRQAPGKERELVAAITEGGVSTYYADSVKGRFTISRDNAKNTVYLQMNSLKPEDTAVYYCNTTGGPDGIVIYEYWGQGTQVTVSS
polyreactivity (PSR sort gate): low polyreactivity

QVQLVESGVGLVKAGGSLRLSCATSGLILYRYVMGWYRQAAGKERQLVAAISSSGGRTYYADSVKGRFTISRDNAKNTVYLQMNSLKPEDTAVYYCAKRRSDARRGYDYLGQGTQVTVSS
polyreactivity (PSR sort gate): high polyreactivity

QVQLVESGGALVQAGGSLRLSCAASGIIFYDYAMGWYRPAPGKERELVAAITWTGSSTYYADSVKGRFTISRDNAKITVYRQMNCLKQEDTAVSYCAADYWEYSPYEDLTYDYWGQGTQVTVSS
polyreactivity (PSR sort gate): high polyreactivity

QVQLVESGGGLVQAGGSLRLSCAASGSIFKPYAMGWYRQAPGKERELVAVISSGGSTNYADSVKGRFTISRDNAKNTVYLQMNSLKPEDTAVYYCAAEDQYGYDYWGQGTQVTVSS
polyreactivity (PSR sort gate): high polyreactivity

QVQLVESGGGLVQAGGSLRLSCAASGSTFIGYAMGWYRQAPGKDRELVAAITRSGGRTYYADSVKGRFTISRDNAKNTVYLQMNSLKPEVSAVYYCAARVKGQWNTYDYWGQGTQVTVSS
polyreactivity (PSR sort gate): high polyreactivity

QVQLVESGGGLVQGGSLRLSCAASGFTFPIYVMGWSRHAPGKEMELVASISSVGSTNYADSVKGRFTISRDNSKNTVYLQMNSLKPEDTAVYYCNADDPNSYGGFDYWGQGTQVTVSS
polyreactivity (PSR sort gate): low polyreactivity

QVQLIESGGGLVQAGGSLRLSCAASGSTFYGNAMGWYRQAPGKEREFVDAITGSGDSTDYADSVKGRFTISRDNAKNTVYLQMNSLKPEDTAVYFCNAEVFDRDSYEYWGQGTQVSVSS
polyreactivity (PSR sort gate): low polyreactivity

RVQLVESGGGLVQAGGSLRLSCAASGGTFPVYAMGWYRQAPGKEWELVAAISYSGVTTYYADSVKGRFTISRDNAKNTVYLQMNSLKPEDTAVYYCNADWRRWYIFSYDYWGQGTQVTVSS
polyreactivity (PSR sort gate): low polyreactivity

QVQLVESGGGLVQAGGSLRLSSAATGSIIGFYAMGWYRQAPGKERELVAAITRGGGSTFYADSVKGRFTISRDNAKNTVYLQINSLKPEDTAVYYCAATVYRYHGPGYYYWGQGTQVTVSS
polyreactivity (PSR sort gate): high polyreactivity

QVQLVESGGGLVQAGGSLRLSCAASGITFPYYAMGWSRQAPGKERELVAAISSSGGSTYYADSVKGRFTISRDNAKNTVYLQLNSLKPEDTAVYYCAAQRYINYDYWGQGTQVTVSS
polyreactivity (PSR sort gate): high polyreactivity

QVQLVESGGGLVQAGGSLRLSCAASGFTFEYNAMGGYRQDPGKERELVAAITTTGSTYYADSVKGRFTISRDNAKNTVYLQMNSLKPEDTAVYYCAADPVWRGYSYQFDYWGQGTQVTVSS
polyreactivity (PSR sort gate): low polyreactivity

QVQLVESGGGLVQAGGSLRLSCAASGRIFYINAMGWYRQAPGKERELVAAITEGGVSTYYADSVKGRFTISRDNAKNTVYLQMNSLKPEDTAVYYCNTTGGPDGIVIYEYWGQGTQVTVSS
polyreactivity (PSR sort gate): low polyreactivity

QVQLVESGGGLVQAGGSLRLSCAASGRIFVSYAMGWYRQAPGKERELVAGISSSGGSTYYADSVKGRFTISRDNAKNTVYLQMNSLKPEDTAVYYCNTDQRSRMDYWGQGTQVTVSS
polyreactivity (PSR sort gate): low polyreactivity

QVPLVESGGGLVQAGGRLRLSCAASGSTLLNSPMGWYRKAPGKERELVAAISSSGGRTYYPDSVKGRFTISRDNAKNTVYLQMNSLTPEDTEVYYCNKVLGYPKTFGYWGQGTQVSVSS
polyreactivity (PSR sort gate): high polyreactivity

QVQLVESGGGLVQAGGSLRLSCAASGSIFRPYAMGWYRQAPGKERELVAAITWSGGRTYYADSVKGRFTISRDNAKNTVYLQMNSLKPEDTAVYYCAADDSEGFDYWGQGTQVTVSS
polyreactivity (PSR sort gate): high polyreactivity

QVQLVESGGGLVQAGGSLRLSCADSGFTFRYNAIGSYRQAPGKERELVARISSTGGGTSYADSVKGRFTISRDNAKNTVYLQMNSLKPEDTAVYYCNKRSWGYGRGLPDSDYWGQGTQVTVSS
polyreactivity (PSR sort gate): low polyreactivity

QVQLVESGGGLVQAGGSLRLSCAASGSTFGTNAMGWYRQAPGKERELVAAISVSSTYYADSVKGRFTISRDNAKNTVYLQMNSLKPEDTAVYYCAADNSYGYRLDYWGQGTQVTVSS
polyreactivity (PSR sort gate): low polyreactivity

QVQLVESVGGLVQAGGSLGLTCAASGFIFRYYAMGWYRQAPGLERELVAPINASGGRTYYADSVKGRFTISRDNARNTLYLQMNSLKPEDTAVYYCAAYRSYQTFDYWGQGTQVTVSS
polyreactivity (PSR sort gate): high polyreactivity

QVQLVESGGGLVQAGGSLRLSCAASGRIFGVYAMGWYRQAPGKERELVAAITSSGGRTYYADSVKGRFTISRDNAKNTVYLQMNSLKPEDTAVYYCAALGWSRRGKFNYWGQGTQVTVSS
polyreactivity (PSR sort gate): high polyreactivity

QVQLVESGGGLVQAGGSLRLSCAASGSIFYEYAMGWYRQAPGKEREFVAAISSSGGSTYYADSVKGRFTISRDNAKNTVYLQMNSLKPEDTAVYYCAADIYYYLWGLYYWGQGTQVTVSS
polyreactivity (PSR sort gate): low polyreactivity

QVQLVESGGGLVQAGGSLRLSCAASGRTFASNAMGWYRQAPGKERELVAAITRGGSTYYADSVKGRFTISRDNAKNTVYLQMNSLKPEDTAVYYCAADRWWYQNEVDYWGQGTQVTVSS
polyreactivity (PSR sort gate): low polyreactivity

HVQLVESGGGLVQAGGSLRLSCAASGSIYALYDLGRYRQAPGKERELVASITGSGGNTYYADSVKGRFTISRDNAKNTVYLQMNSLKPEDTAVYYCAADFRYAGYSYDYWGQGTQVSVSS
polyreactivity (PSR sort gate): low polyreactivity

QVHLVESGGGLVQAGGSLRLSCAASGITFYRNAMGWYRQPRGKEMELVAAITWNGGRTYYADSVKGRFTISRDNAKNTVYLQMNSLKPEDTAVYYCAADSGSRNLASYRYYSWGQGTQVTVSS
polyreactivity (PSR sort gate): low polyreactivity

QDQLVESGGGLVQARGSLRLSCAASGSIFVHNAMGWYRQAPGKEREFVAAITWSGGSTYYADSVKGRFTISRDYAKNTVYLQMNSLKPEDTAVSYCAAEDVAAQWAYESPTSYWYYYWGQGTQVTVSS
polyreactivity (PSR sort gate): low polyreactivity

QVQLVESGGGLVQAGGSLRLSCAAYGSTFTSYAMGWYRQAPGKERELVAAISSSGTRTYYADSVKGRFTISRDNAKNTVYLQMNSLKPEDTAVYYCAKASPYSKLYYWGQGTQGTVSS
polyreactivity (PSR sort gate): high polyreactivity

QVQLVESGGGLVQAGGSLRLSCAASGRILGDYAMGWYRQAPGKEREFVAAIDYNGGSTNYADSVKGRFTISRDNAKNTVYLQMNSLKPEDTAVYYCAAPGFPSRNGFGYWGQGTQVTVSS
polyreactivity (PSR sort gate): low polyreactivity
